# According to patent US20060241051A1 (Takeda / Millennium, published 2006):
# Numbered stars: 1 amine (or outer) side, 2 acyl side, 3 side chain; on linkers, the order of the positions; unused ones are H or OH. Square brackets hold non-standard residues; d marks the D form. Primed or numbered codes have the meaning given here. Ends that are not written are not given here. * marks the point of attachment. Trp(For)″ = Trp(CHO), O=Cn1cc(C[C@H](N[*:1])C(=O)[*:2])c2ccccc21; Phe(3-CF3) = N[C@@H](Cc1cccc(C(F)(F)F)c1)C(=O)O; Phe(3,4-F2) = N[C@@H](Cc1ccc(F)c(F)c1)C(=O)O; Phe(4-CN) = N#Cc1ccc(C[C@H](N)C(=O)O)cc1; Phe(4-Cl) = N[C@@H](Cc1ccc(Cl)cc1)C(=O)O; Phe(3-F) = N[C@@H](Cc1cccc(F)c1)C(=O)O; Phe(4-F) = N[C@@H](Cc1ccc(F)cc1)C(=O)O; Phe(2-F) = N[C@@H](Cc1ccccc1F)C(=O)O; Arg(Me) = CNC(=N)NCCC[C@H](N)C(=O)O; Fmoc = O=C(OCC1c2ccccc2-c2ccccc21)*; 2Pal = N[C@@H](Cc1ccccn1)C(=O)O; 3Pal = N[C@@H](Cc1cccnc1)C(=O)O; Cha = N[C@@H](CC1CCCCC1)C(=O)O; Arg(Et)′ = not defined here; Dab = NCC[C@H](N)C(=O)O; azaGly = NNC(=O)O
# B1: Compound No. 251: [D-Tyr1,Pya(3) 3,AzaGly7,Arg(Me)9]MS10 (peptide)
# peptide: [dY]N[3Pal]NSF[azaGly]L[Arg(Me)]F-NH2
# modifications: N-terminus assumed
# SMILES: CNC(=N)NCCC[C@H](NC(=O)[C@H](CC(C)C)NC(=O)NNC(=O)[C@H](Cc1ccccc1)NC(=O)[C@H](CO)NC(=O)[C@H](CC(N)=O)NC(=O)[C@H](Cc1cccnc1)NC(=O)[C@H](CC(N)=O)NC(=O)[C@H](N)Cc1ccc(O)cc1)C(=O)N[C@@H](Cc1ccccc1)C(N)=O
# B2: Compound No. 145: des(1-2)-Fmoc-[Arg(Me)9]MS10 (peptide)
# peptide: Fmoc-WNSFGL[Arg(Me)]F-NH2
# SMILES: CNC(=N)NCCC[C@H](NC(=O)[C@H](CC(C)C)NC(=O)CNC(=O)[C@H](Cc1ccccc1)NC(=O)[C@H](CO)NC(=O)[C@H](CC(N)=O)NC(=O)[C@H](Cc1c[nH]c2ccccc12)NC(=O)OCC1c2ccccc2-c2ccccc21)C(=O)N[C@@H](Cc1ccccc1)C(N)=O
# B3: Compound No. 275: des(1-2)-Acetyl-[Arg3,AzaGly7,Arg(Me)9]MS10 (peptide)
# peptide: Ac-RNSF[azaGly]L[Arg(Me)]F-NH2
# SMILES: CNC(=N)NCCC[C@H](NC(=O)[C@H](CC(C)C)NC(=O)NNC(=O)[C@H](Cc1ccccc1)NC(=O)[C@H](CO)NC(=O)[C@H](CC(N)=O)NC(=O)[C@H](CCCNC(=N)N)NC(C)=O)C(=O)N[C@@H](Cc1ccccc1)C(N)=O
# B4: Compound No. 276: des(1-2)-Acetyl-[Thr3,AzaGly7,Arg(Me)9]MS10 (peptide)
# peptide: Ac-TNSF[azaGly]L[Arg(Me)]F-NH2
# SMILES: CNC(=N)NCCC[C@H](NC(=O)[C@H](CC(C)C)NC(=O)NNC(=O)[C@H](Cc1ccccc1)NC(=O)[C@H](CO)NC(=O)[C@H](CC(N)=O)NC(=O)[C@@H](NC(C)=O)[C@@H](C)O)C(=O)N[C@@H](Cc1ccccc1)C(N)=O
# B5: Compound No. 285: [D-Tyr1,Pya(2) 3,AzaGly7,Arg(Me)9]MS10 (peptide)
# peptide: [dY]N[2Pal]NSF[azaGly]L[Arg(Me)]F-NH2
# modifications: N-terminus assumed
# SMILES: CNC(=N)NCCC[C@H](NC(=O)[C@H](CC(C)C)NC(=O)NNC(=O)[C@H](Cc1ccccc1)NC(=O)[C@H](CO)NC(=O)[C@H](CC(N)=O)NC(=O)[C@H](Cc1ccccn1)NC(=O)[C@H](CC(N)=O)NC(=O)[C@H](N)Cc1ccc(O)cc1)C(=O)N[C@@H](Cc1ccccc1)C(N)=O
# Molecular target: T1, human OT7T175 (metastin receptor) (human, UniProt Q969F8 1-398)
# T1 construct: expressed on CHO cells (hOT7T175-expressed CHO cells; hOT7T175/CHO); also called hOT7T175; h0T7T175
# T1 sequence (Q969F8 whole entry L364H): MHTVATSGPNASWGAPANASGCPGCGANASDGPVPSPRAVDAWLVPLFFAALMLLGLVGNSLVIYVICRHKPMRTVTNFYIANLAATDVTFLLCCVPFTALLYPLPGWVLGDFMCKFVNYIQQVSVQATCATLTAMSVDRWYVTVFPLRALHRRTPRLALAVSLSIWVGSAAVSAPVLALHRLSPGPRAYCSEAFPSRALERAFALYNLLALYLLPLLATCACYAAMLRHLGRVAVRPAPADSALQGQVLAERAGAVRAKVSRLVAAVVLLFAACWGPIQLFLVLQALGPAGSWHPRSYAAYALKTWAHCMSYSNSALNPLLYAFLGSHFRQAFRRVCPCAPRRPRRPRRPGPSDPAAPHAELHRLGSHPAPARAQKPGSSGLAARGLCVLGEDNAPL
# Assay: FMAT competition with Cy-5-labeled metastin (40-54), hOT7T175-expressed CHO cells
# Description: h0T7T175-Expressed CHO cells were cultured in MEM-α medium (nucleic acid-free) containing 10% dialyzed serum. The medium was removed and the adherent cells were washed with PBS. Then, PBS containing 5 mM EDTA was added and the cells were scraped from a flask with a cell scraper. […] To each well of a 96-Well Black Clear Bottom Plate (Applied Biosystems, Inc.), 10 μL of assay buffer containing 1% dimethylsulfoxide was added to examine total binding, 10 μL of 10 μM non-labeled peptide (having the same amino acid sequence as that of the labeled one) solution diluted with assay buffer to examine non-specific binding, and 10 μL of a test compound diluted with assay buffer to examine the binding inhibition activity of the test compound, respectively. Furthermore, 90 μL each of the cell suspension was dispensed to each well. […] The specific binding is a value obtained by subtracting the non-specific binding from the total binding.
row,Binder,IC50 [nM]
1,"[dY]N[dW]NSFGL[Arg(Me)]F-NH2 [Compound No. 142: [D-Tyr1,D-Trp3,Arg(Me)9]MS10]",26
2,"[dW]NSFGL[Arg(Me)]F-NH2 [Compound No. 223: des(1-2)-[D-Trp3,Arg(Me)9]MS10]",760
3,"[dY]N[Cha]NS[Cha]GL[Arg(Me)]F-NH2 [Compound No. 181: [D-Tyr1,Cha3,6,Arg(Me)9]MS10]",19
4,YNWNSFGL[Arg(Me)]F-NH2 [Compound No. 82: [Arg(Me)9]MS10],4.1
5,B1,87
6,"[dY][dN][Cha]NSF[azaGly]L[Arg(Me)]F-NH2 [Compound No. 283: [D-Tyr1,D-Asn2,Cha3,AzaGly7,Arg(Me)9]MS10]",0.69
7,YNWNSFGL[Dab]F-NH2 [Compound No. 313: [Dab9]MS10],690
8,YNWNSFGLR[Phe(3-CF3)]-NH2 [Compound No. 200: [Phe(3CF3)10]MS10],340
9,NWNSFGLRF-NH2 (also called human metastin 9 (46-54)) [Compound No. 4: des(1)-MS10],260
10,"[dY]INSF[azaGly]L[Arg(Me)]F-NH2 [Compound No. 240: des(1)-[D-Tyr2,Ile3,AzaGly7,Arg(Me)9]MS10]",17
11,"[dY]TNSFGL[Arg(Me)]F-NH2 [Compound No. 227: des(1)-[D-Tyr2,Thr3,Arg(Me)9]MS10]",48
12,"[dY]SNSF[azaGly]L[Arg(Me)]F-NH2 [Compound No. 239: des(1)-[D-Tyr2,Ser3,AzaGly7,Arg(Me)9]MS10]",120
13,"[dY]SNSFGL[Arg(Me)]F-NH2 [Compound No. 226: des(1)-[D-Tyr2,Ser3,Arg(Me)9]MS10]",100
14,"[dN][dW]NSFGL[Arg(Me)]F-NH2 [Compound No. 225: des(1)-[D-Asn2,D-Trp3,Arg(Me)9]MS10]",410
15,"YNWNSF[azaGly]L[Arg(Me)]F-NH2 (also: Tyr1-Asn2 bond reduced (CH2NH)) [Compound No. 299: [1Ψ2,CH2NH,AzaGly7,Arg(Me)9]-MS10]",1.2
16,"[dY]NWNSFGL[Arg(Et)′]F-NH2 [Compound No. 192: [D-Tyr1,Arg(Et)9]MS10]",530
17,YNWNYFGLRF-NH2 [Compound No. 23: [Tyr5]MS10],400
18,"[dY]N[dA]NSF[azaGly]L[Arg(Me)]F-NH2 [Compound No. 252: [D-Tyr1,D-Ala3,AzaGly7,Arg(Me)9]MS10]",580
19,YNKNSFGLRF-NH2 [Compound No. 71: [Lys3]MS10],66
20,YYWNSFGLRF-NH2 [Compound No. 58: [Tyr2]MS10],16
21,YNDNSFGLRF-NH2 [Compound No. 70: [Asp3]MS10],200
22,YNWNSFGLR[Trp(For)″]-NH2 (also called [Trp(CHO)10]MS10) [Compound No. 186: [Trp(For)10]MS10],460
23,"[dY]NSNSF[azaGly]L[Arg(Me)]F-NH2 [Compound No. 191: [D-Tyr1,Ser3,AzaGly7,Arg(Me)9]MS10]",300
24,YNWNSYGLRF-NH2 [Compound No. 150: [Tyr6]MS10],320
25,YLWNSFGLRF-NH2 [Compound No. 59: [Leu2]MS10],340
26,ANWNSFGLRF-NH2 [Compound No. 72: [Ala1]MS10],540

row,Binder,IC50 [nM]
1,"[dY]NPNSF[azaGly]L[Arg(Me)]F-NH2 [Compound No. 253: [D-Tyr1,Pro3,AzaGly7,Arg(Me)9]MS10]",27
2,YNWNSFGLKF-NH2 [Compound No. 44: [Lys9]MS10],190
3,"[dY]NTNSF[azaGly]L[Arg(Me)]F-NH2 [Compound No. 221: [D-Tyr1,Thr3,AzaGly7,Arg(Me)9]MS10]",95
4,LNWNSFGLRF-NH2 [Compound No. 73: [Leu1]MS10],220
5,YNANSFGLRF-NH2 [Compound No. 67: [Ala3]MS10],27
6,YDWNSFGLRF-NH2 [Compound No. 57: [Asp2]MS10],100
7,YNWNSFGVRF-NH2 [Compound No. 107: [Val8]MS10],120
8,YNSNSFGLRF-NH2 [Compound No. 69: [Ser3]MS10],83
9,YNLNSFGLRF-NH2 [Compound No. 68: [Leu3]MS10],7.7
10,B2,120
11,"{D‑Glucuronyl}-NSF[azaGly]L[Arg(Me)]F-NH2 [Compound No. 328: des(1-3)-D-Glucuronyl-[AzaGly7,Arg(Me)9]MS10]",470
12,YNWNSFGLR[Phe(4-Cl)]-NH2 [Compound No. 130: [Phe(4Cl)10]MS10],42
13,"[dY]NWNSFGL[Arg(Me)]F-NH2 (also: Gly7-Leu8 bond reduced (CH2NH)) [Compound No. 307: [7Ψ8,CH2NH,D-Tyr1,Arg(Me)9]MS10]",64
14,YNWNSFGLR[Phe(2-F)]-NH2 [Compound No. 19: [Phe(2F)10]MS10],8.6
15,YNWNSFGLRX (Pya(3)10; C-terminal amide) [Compound No. 60: [Pya(3)10]MS10],170
16,"[dY]NWNSF[azaGly]L[Arg(Me)][Phe(4-F)]-NH2 [Compound No. 318: [D-Tyr1,AzaGly7,Arg(Me)9,Phe(4F)10]MS10]",0.99
17,YNWNSFGLR[Phe(4-CN)]-NH2 [Compound No. 77: [Phe(4CN)10]MS10],7.4
18,B3,410
19,B4,480
20,"[dY]NWNSFGL[Arg(Me)]F-NH2 (also: Phe6-Gly7 bond reduced (CH2NH)) [Compound No. 308: [6Ψ7, CH2NH,D-Tyr1,Arg(Me)9]MS10]",350
21,YNWNSFGLR[Phe(4-F)]-NH2 [Compound No. 61: [Phe(4F)10]MS10],13
22,YNWNSFGLR[Phe(3-F)]-NH2 [Compound No. 197: [Phe(3F)10]MS10],170
23,"YNWNSFGLR[Phe(3,4-F2)]-NH2 [Compound No. 198: [Phe(3,4F2)10]MS10]",170
24,YNWNSFGLR(Et)F-NH2 [Compound No. 220: [Arg(Et)9]MS10],330
25,"[dY]N[dW]NSF[azaGly]LR(Me)F-NH2 [Compound No. 236: (D-Tyr1,D-Trp3,AzaGly7,Arg(Me)9]MS10]",42
26,B5,40
